Test results as given in patent US20230212319A1, “NOVEL ANTIGEN BINDING DOMAINS AND SYNTHETIC ANTIGEN RECEPTORS INCORPORATING THE SAME” (University of Southern California, priority 2020, published 2023).

B1: 22217 (protein)
chain: MALPVTALLLPLALLLHAARPACEVQLLESGGGLIQPGGSLRLSCAASGFTFSSHAMTWVRQAPGKGLEWVSAISGSGDYTHYADSVKGRFTISRDNSKNTVYLQMNSLRAEDSAVYYCAKDEDGGSLLGHRGQGTLVTVSSGTGAVVRGAEFDIQMTQSPSSLSASVGDRVTITCKASDHINNWLAWYQQKPGQAPKLLIYGATTLETGVPSRFSGSGSGTDYTLTISSLQPEDFATYYCQQSWNTPWTFGQGTKLEIKRLEDLKNVFPPEVAVFEPSKAEIAHTQKATLVCLATGFYPDHVELSWWVNGKEVHSGVCTDPQPLKEQPALNDSRYCLSSRLRVSATFWQNPRNHFRCQVQFYGLSENDEWTQDRAKPVTQIVSAEAWGRADCGITSASYHQGVLSATILYEILLGKATLYAVLVSALVLMAMVKRKDSRGRAKRSGSGATNFSLLKQAGDVEENPGPTSATMDWIWRILFLVGAATGAHSGPEVQLVESGGGLVQAGGSLRLSCAASGRTFSMGWFRQAPGKEREFVAAITYSGGSPYYADSVKGRFTISRDNAKNTVYLQMNSLKPEDTAVYYCAANPTYGSDWNAENWGQGTQVTVSSGSGGGGSGGGGSGGGGSFEQVQLQQPGAELVKPGASVKMSCKASGYAFSSYWINWMKQKPGQGLEWIGQIYPGDGDTNYNGKFKGRATLTADTSSSTAYMQLSSLTSEDSAVYFCARSITTVVGCAMDYWGQGTSVTVSSTRIQNPDPAVYQLRDSKSSDKSVCLFTDFDSQTNVSQSKDSDVYITDKCVLDMRSMDFKSNSAVAWSNKSDFACANAFNNSIIPEDTFFPSPESSCDVKLVEKSFETDTNLNFQNLSVIGFRILLLKVAGFNLLMTLRLWSSRAKRSGSGVKQTLNFDLLKLAGDVESNPGPSRGHMTEYKPTVRLATRDDVPRAVRTLAAAFADYPATRHTVDPDRHIERVTELQELFLTRVGLDIGKVWVADDGAAVAVWTTPESVEAGAVFAEIGPRMAELSGSRLAAQQQMEGLLAPHRPKEPAWFLATVGVSPDHQGKGLGSAVVLPGVEAAERAGVPAFLETSAPRNLPFYERLGFTVTADVEVPEGPRTWCMTRKPGA
B2: 22135 (protein)
chain: MALPVTALLLPLALLLHAARPACEVQLLESGGGLIQPGGSLRLSCAASGFTFSSHAMTWVRQAPGKGLEWVSAISGSGDYTHYADSVKGRFTISRDNSKNTVYLQMNSLRAEDSAVYYCAKDEDGGSLLGHRGQGTLVTVSSGTGGGGSGGGGSGGGGSEFDIQMTQSPSSLSASVGDRVTITCKASDHINNWLAWYQQKPGQAPKLLIYGATTLETGVPSRFSGSGSGTDYTLTISSLQPEDFATYYCQQSWNTPWTFGQGTKLEIKRLEDLKNVFPPEVAVFEPSEAEISHTQKATLVCLATGFYPDHVELSWWVNGKEVHSGVCTDPQPLKEQPALNDSRYCLSSRLRVSATFWQNPRNHFRCQVQFYGLSENDEWTQDRAKPVTQIVSAEAWGRADCGFTSESYQQGVLSATILYEILLGKATLYAVLVSALVLMAMVKRKDSRGRAKRSGSGATNFSLLKQAGDVEENPGPTSATMDWIWRILFLVGAATGAHSGPEVQLVESGGGLVQAGGSLRLSCAASGRTFSMGWFRQAPGKEREFVAAITYSGGSPYYADSVKGRFTISRDNAKNTVYLQMNSLKPEDTAVYYCAANPTYGSDWNAENWGQGTQVTVSSGSGGGGSGGGGSGGGGSFEQVQLQQPGAELVKPGASVKMSCKASGYAFSSYWINWMKQKPGQGLEWIGQIYPGDGDTNYNGKFKGRATLTADTSSSTAYMQLSSLTSEDSAVYFCARSITTVVGCAMDYWGQGTSVTVSSTRIQNPDPAVYQLRDSKSSDKSVCLFTDFDSQTNVSQSKDSDVYITDKCVLDMRSMDFKSNSAVAWSNKSDFACANAFNNSIIPEDTFFPSPESSCDVKLVEKSFETDTNLNFQNLSVIGFRILLLKVAGFNLLMTLRLWSSRAKRSGSGVKQTLNFDLLKLAGDVESNPGPSRGHMTEYKPTVRLATRDDVPRAVRTLAAAFADYPATRHTVDPDRHIERVTELQELFLTRVGLDIGKVWVADDGAAVAVWTTPESVEAGAVFAEIGPRMAELSGSRLAAQQQMEGLLAPHRPKEPAWFLATVGVSPDHQGKGLGSAVVLPGVEAAERAGVPAFLETSAPRNLPFYERLGFTVTADVEVPEGPRTWCMTRKPGA
B3: 22145 (protein)
chain: MALPVTALLLPLALLLHAARPACEVQLLESGGGLIQPGGSLRLSCAASGFTFSSHAMTWVRQAPGKGLEWVSAISGSGDYTHYADSVKGRFTISRDNSKNTVYLQMNSLRAEDSAVYYCAKDEDGGSLLGHRGQGTLVTVSSGTGGGGSGGGGSGGGGSEFDIQMTQSPSSLSASVGDRVTITCRASQDISNYLNWYQQKPGKAVKLLIYYTSILHSGVPSRFSGSGSGTDYTLTISSLQPEDFATYFCQQGNTLPWTFGGGTKVEIKLEGQPKANPTVTLFPPSSEELQANKATLVCLISDFYPGAVTVAWKADGSPVKAGVETTKPSKQSNNKYAASSYLSLTPEQWKSHRSYSCQVTHEGSTVEKTVAPTECSPIKTDVITMDPKDNCSKDANDTLLLQLTNTSAYYMYLLLLLKSVVYFAIITCCLLRRTAFCCNGEKSRAKRSGSGATNFSLLKQAGDVEENPGPTSATMDWIWRILFLVGAATGAHSGPQVQLQESGGGLAQAGGSLRLSCAASGRTFSMGWFRQAPGKEREFVAAITYSGGSPYYASSVRGRFTISRDNAKNTVYLQMNSLKPEDTAVYYCAANPTYGSDWNAENWGQGTQVTVSSGSGGGGSGGGGSGGGGSFEVQLVESGGGLVKPGGSLKLSCAASGFAFSIYDMSWVRQAPGKGLEWVAYISSGGGTTYYPDTVKGRFTISRDNAKNTLYLQMSSLRAEDTAMYYCARHSGYGSSYGVLFAYWGQGTLVTVSSTRASTKGPSVFPLAPSSKSTSGGTAALGCLVKDYFPEPVTVSWNSGALTSGVHTFPAVLQSSGLYSLSSVVTVPSSSLGTQTYICNVNHKPSNTKVDKRVEPKSCEVKTDSTDHVKPKETENTKQPSKSCHKPKAIVHTEKVNMMSLTVLGLRMLFAKTVAVNFLLTAKLFFLRAKRSGSGVKQTLNFDLLKLAGDVESNPGPSRGHMTEYKPTVRLATRDDVPRAVRTLAAAFADYPATRHTVDPDRHIERVTELQELFLTRVGLDIGKVWVADDGAAVAVWTTPESVEAGAVFAEIGPRMAELSGSRLAAQQQMEGLLAPHRPKEPAWFLATVGVSPDHQGKGLGSAVVLPGVEAAERAGVPAFLETSAPRNLPFYERLGFTVTADVEVPEGPRTWCMTRKPGA

What was measured:
Format in all cases: cell-based
[1] = system: RAJI cells; assay: JNG assay, co-culture with RAJI cells; conditions: JNG cells expressing construct, co-culture with Raji
Outline: (§1)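 Jurkat-NFAT-GFP (JNG) cells stably expressing SAR constructs via lentiviral transduction and puromycin/blasticidin selection were cocultured with target cells at E:T ~1:2 for ~4–18 h. NFAT-driven GFP was measured by FACS versus parental JNG cells; scores +/- to 5+ denote ~5–50% GFP-positive cells.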

[2] = system: RAJI-CD19-KO cells; assay: JNG assay, co-culture with RAJI-CD19-KO cells; conditions: co-culture with Raji-CD19-KO
Outline: as §1

[3] = system: L363 cells; assay: JNG assay, co-culture with L363 cells; conditions: co-culture with L363
Outline: as §1

[4] = system: Nalm6 cells; assay: JNG assay, co-culture with Nalm6 cells; conditions: co-culture with Nalm6
Outline: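 Values are semi-quantitative grades of GFP induction, each step approximating 10% more GFP+ cells (5+ ≈50%) above parental reporter cells, measured by FACS after SAR-transduced JNG cells were cultured with targets at ~1:2 E:T for ~4–18 h.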

[5] = system: U266 cells; assay: JNG NFAT-GFP induction on co-culture with U266
[6] = system: RS;411; assay: JNG assay, co-culture with RS;411 cells; conditions: co-culture with RS411
Outline: as §1

| Molecule | NFAT-GFP ASSAY: Raji [1] | NFAT-GFP ASSAY: Raji-CD19-KO [2] | NFAT-GFP ASSAY: L363 [3] | NFAT-GFP ASSAY: Nalm6 [4] | NFAT-GFP ASSAY: U266 [5] | NFAT-GFP ASSAY: RS411 [6] |
| --- | --- | --- | --- | --- | --- | --- |
| B1 | + (refer to approximately 5%, 10%, 20%, 30%, 40% and 50% GFP positive cells) | 3+ (refer to approximately 5%, 10%, 20%, 30%, 40% and 50% GFP positive cells) | 3+ (refer to approximately 5%, 10%, 20%, 30%, 40% and 50% GFP positive cells) | 4+ (refer to approximately 5%, 10%, 20%, 30%, 40% and 50% GFP positive cells) | 4+ (refer to approximately 5%, 10%, 20%, 30%, 40% and 50% GFP positive cells) | – |
| B2 | – | – | 2+ (refer to approximately 5%, 10%, 20%, 30%, 40% and 50% GFP positive cells) | – | 3+ (refer to approximately 5%, 10%, 20%, 30%, 40% and 50% GFP positive cells) | 2+ (refer to approximately 5%, 10%, 20%, 30%, 40% and 50% GFP positive cells) |
| B3 | +/- (refer to approximately 5%, 10%, 20%, 30%, 40% and 50% GFP positive cells) | – | – | + (refer to approximately 5%, 10%, 20%, 30%, 40% and 50% GFP positive cells) | 2+ (refer to approximately 5%, 10%, 20%, 30%, 40% and 50% GFP positive cells) | + (refer to approximately 5%, 10%, 20%, 30%, 40% and 50% GFP positive cells) |
